Measured values published in patent US11584938B2, “Plant EPSPS mutant containing L195P and S247G mutations and encoding gene and use thereof” (GEVOTO LLC, priority 2017, dated 2023).

Test system: transgenic rice plants
Assay: glyphosate resistance of the EPSPS mutant in transgenic rice plants sprayed with Roundup 41% ammonium glyphosate
Format: in vivo, rice (Nipponbare)
From the text: A method for detecting the glyphosate resistance of G1 (SEQ ID NO: 4) provided in Example 1, G3 (SEQ ID NO: 8) provided in Example 2, G4 (SEQ ID NO: 10) provided in Example 3, the soybean EPSPS mutant G5 (SEQ ID NO: 12) provided in Example 4, T1 (SEQ ID NO: 16) provided in Example 5, T3 (SEQ ID NO: 20) provided in Example 6, T4 (SEQ ID NO: 22) provided in Example 7, T5 (SEQ ID NO: 24) provided in Example 8, the wheat EPSPS mutant T6 (SEQ ID NO: 26) provided in Example 9, R1 (SEQ ID NO: 30) provided in Example 10, R3 (SEQ ID NO: 34) provided in Example 11, R4 (SEQ ID NO: 36) provided in Example 12, R5 (SEQ ID NO: 38) provided in Example 13, and the rice EPSPS mutant R6 (SEQ ID NO: 40) provided in Example 14 in the transgenic rice is as follows:
The plasmids (containing the EPSPS mutation gene) of the monoclonal resistant bacteria of pADV5-EPSPS in Examples 1-7 were extracted by a conventional method, followed by double enzyme digestion by Pac1 and BstEII, the small fragments were collected, and then the small fragments were ligated by using T4 DNA ligase, to the pGVP1 vectors that had undergone the same double enzyme digestion, to obtain a pGVP1-EPSPS vector having a structure as shown in FIG. 23.
EHA105 (Agrobacterium tumefaciens) competent cells were transformed by the pGVP1-EPSPS vector, and single colonies were picked up to perform bacterial colony PCR detection to identify positive strains; then the positive strains were inoculated into 1 mL of YEP culture medium containing 50 μg·mL^−1 kanamycin and 50 μg·mL^−1 rifampin to propagate, and then preserved at −80° C., or used for subsequent experiment.
400 μl of bacterium containing the target gene vector preserved at −80° C. was added to a culture dish of solid culture media containing YEP+50 μg/mL rifampin+50 μg/mL kanamycin, and cultured in the dark at 28° C. for 24 hours, then this bacterium was added to an infection culture medium, and this bacterial solution was adjusted to OD=0.2 as an infection liquid.
Sterilization and pre-culturing: mature rice (Nipponbare) seeds were manually shelled, and full seeds without bacterial plaque were selected, and sterilized according to following steps: putting the seeds into a 50 ml sterile centrifuge tube, adding 70% alcohol for disinfection for 30 seconds, pouring out the alcohol, and cleaning the seeds once with sterile water; adding 10-20 ml of 2.6% sodium hypochlorite solution for soaking and sterilizing for 20 minutes, pouring out the sodium hypochlorite solution, and soaking and cleaning the seeds with sterile water for 6-7 times, 3 minutes each time.
Induction and subculturing: the seeds were put on sterile filter paper for drying, and mature embryos were put in an induction culture medium with 12 embryos in each dish; the culture dishes were sealed with a sealing film after the operation was finished, the mature embryos were cultured in the dark at 30° C. for 21-28 days, calluses were transferred into a fresh culture medium, and continuously cultured for about 7-14 days, and spherical calluses with a size of 1-2 mm were taken as infection receptors.
the calluses were inoculated into a centrifuge tube or a culture cup, the prepared Agrobacterium tumefaciens suspension liquid was added for infection for 10 minutes, wherein the calluses were shaken several times; the bacterial solution was poured out, the calluses were taken out, and placed on sterile filter paper to suck out the surface bacterial solution (about 30 minutes); and the calluses were put on sterile filter paper in a culture dish, and cultured in the dark at 25° C. for 2-3 days.
Recovery culturing: the calluses having undergone co-culturing were inoculated in a recovery culture medium, and cultured in the dark at 30° C. for 5-7 days. First round of screening: the calluses were transferred to screening culture media 1 (S1) and cultured in the dark at 30° C. for 14 days. […]

[1] = 1× dosage 1060 g/hectare glyphosate sprayed, recorded on 10th day
[2] = 2× dosage 2120 g/hectare sprayed to plants surviving 1×, recorded 10 days later
[3] = 5× dosage 5300 g/hectare sprayed to plants surviving 2×, recorded 10 days later
[4] = 20× dosage 21200 g/hectare sprayed to plants surviving 5×, recorded 10 days later

Molecule	%++&+++ (percentage of plant having medium and high glyphosate resistance to the total number of plants observed) [1]	number of plants denoted by + (low glyphosate resistance) [1]	number of plants denoted by ++ (medium glyphosate resistance) [1]	number of plants denoted by +++ (high glyphosate resistance) [1]	number of plants denoted by − (no glyphosate resistance) [1]	glyphosate resistance / survival of the rice transformed by the EPSPS, in words (1× glyphosate dosage)	%++&+++ (percentage of plant having medium and high glyphosate resistance to the total number of plants observed) [2]	number of plants denoted by + (low glyphosate resistance) [2]	number of plants denoted by ++ (medium glyphosate resistance) [2]	number of plants denoted by +++ (high glyphosate resistance) [2]	number of plants denoted by − (no glyphosate resistance) [2]	&++&+++ (percentage of plant having medium and high glyphosate resistance to the total number of plants observed) [3]	number of plants denoted by + (low glyphosate resistance) [3]	number of plants denoted by ++ (medium glyphosate resistance) [3]	number of plants denoted by +++ (high glyphosate resistance) [3]	number of plants denoted by − (no glyphosate resistance) [3]	&++&+++ (percentage of plant having medium and high glyphosate resistance to the total number of plants observed) [4]	number of plants denoted by + (low glyphosate resistance) [4]	number of plants denoted by ++ (medium glyphosate resistance) [4]	number of plants denoted by +++ (high glyphosate resistance) [4]	also measured
T0: wild-type wheat EPSPS, amino acid sequence SEQ ID NO: 14; control (protein, listed as Triticum aestivum) MATSVAAPAAPAGAEEVVLQPIREISGAVQLPGSKSLSNRILLLSALSEGTTVVDNLLNSEDVHYMLEALEALGLSVEADKVAKRAVVVGCGGRFPVEKDAKEEVKLFLGNAGTAMRPLTAAVVAAGGNATYVLDGVPRMRERPIGDLVVGLQQLGADVDCFLGTNCPPVRINGKGGLPGGKVKLSGSISSQYLSSLLMAAPLALEDVEIEIIDKLISVPYVEMTLKLMEHFGVTAEHSDSWDRFYIKGGQKYKSPGNAYVEGDASSASYFLAGAAITGGTVTVEGCGTTSLQGDVKFAEVLEMMGAKVTWTDTSVTVTGPPRQPFGRKHLKAVDVNMNKMPDVAMTLAVVALFADGPTAIRDVASWRVKETERMVAIRTELTKLGATVEEGPDYCIITPPEKLNITAIDTYDDHRMAMAFSLAACAEVPVTIRDPGCTRKTFPNYFDVLSTFVKN	0.0%	1	0	0	32	had no resistance, one was seriously damaged, and all the others died	0.0%	0	0	0	33	0.0%	0	0	0	33	0.0%	0	0	0	number of plants denoted by − (no glyphosate resistance) [4]: 33
T2: wheat EPSPS mutant, SEQ ID NO: 18, merely containing the mutation P118(101)S; control (protein) MATSVAAPAAPAGAEEVVLQPIREISGAVQLPGSKSLSNRILLLSALSEGTTVVDNLLNSEDVHYMLEALEALGLSVEADKVAKRAVVVGCGGRFPVEKDAKEEVKLFLGNAGTAMRSLTAAVVAAGGNATYVLDGVPRMRERPIGDLVVGLQQLGADVDCFLGTNCPPVRINGKGGLPGGKVKLSGSISSQYLSSLLMAAPLALEDVEIEIIDKLISVPYVEMTLKLMEHFGVTAEHSDSWDRFYIKGGQKYKSPGNAYVEGDASSASYFLAGAAITGGTVTVEGCGTTSLQGDVKFAEVLEMMGAKVTWTDTSVTVTGPPRQPFGRKHLKAVDVNMNKMPDVAMTLAVVALFADGPTAIRDVASWRVKETERMVAIRTELTKLGATVEEGPDYCIITPPEKLNITAIDTYDDHRMAMAFSLAACAEVPVTIRDPGCTRKTFPNYFDVLSTFVKN	52.8%	13	15	13	12	had relatively high resistance to glyphosate	7.5%	26	3	1	23	0.0%	21	0	0	32	0.0%	11	0	0	glyphosate resistance / survival of the rice transformed by the EPSPS, in words (5× glyphosate dosage): none of the rice seedlings containing the wheat EPSPS mutant T2 achieved the level of medium glyphosate resistance; number of plants denoted by − (no glyphosate resistance) [4]: 42; glyphosate resistance / survival of the rice transformed by the EPSPS, in words (20× glyphosate dosage): none of the rice seedlings containing the wheat EPSPS mutant T2 achieved the level of medium glyphosate resistance
T1: wheat EPSPS mutant, SEQ ID NO: 16, mutation S269(247)G (protein) MATSVAAPAAPAGAEEVVLQPIREISGAVQLPGSKSLSNRILLLSALSEGTTVVDNLLNSEDVHYMLEALEALGLSVEADKVAKRAVVVGCGGRFPVEKDAKEEVKLFLGNAGTAMRPLTAAVVAAGGNATYVLDGVPRMRERPIGDLVVGLQQLGADVDCFLGTNCPPVRINGKGGLPGGKVKLSGSISSQYLSSLLMAAPLALEDVEIEIIDKLISVPYVEMTLKLMEHFGVTAEHSDSWDRFYIKGGQKYKSPGNAYVEGDASSAGYFLAGAAITGGTVTVEGCGTTSLQGDVKFAEVLEMMGAKVTWTDTSVTVTGPPRQPFGRKHLKAVDVNMNKMPDVAMTLAVVALFADGPTAIRDVASWRVKETERMVAIRTELTKLGATVEEGPDYCIITPPEKLNITAIDTYDDHRMAMAFSLAACAEVPVTIRDPGCTRKTFPNYFDVLSTFVKN	27.0%	28	15	2	18	obviously superior to that of the rice seedlings transformed by T0	1.6%	32	1	0	30	0.0%	2	0	0	61	0.0%	0	0	0	glyphosate resistance / survival of the rice transformed by the EPSPS, in words (2× glyphosate dosage): some of the transgenic rice seedlings transformed by T4, T1 and T5 still survived; glyphosate resistance / survival of the rice transformed by the EPSPS, in words (5× glyphosate dosage): some of the transgenic rice seedlings transformed by T4, T1 and T5 still survived; number of plants denoted by − (no glyphosate resistance) [4]: 63
